Assay results as given in paper PMC3467072.

Molecular target: T1, Rv3066 (TetR-family regulator) (Mycobacterium tuberculosis H37Rv, UniProt I6X658 1-202)
T1 sequence: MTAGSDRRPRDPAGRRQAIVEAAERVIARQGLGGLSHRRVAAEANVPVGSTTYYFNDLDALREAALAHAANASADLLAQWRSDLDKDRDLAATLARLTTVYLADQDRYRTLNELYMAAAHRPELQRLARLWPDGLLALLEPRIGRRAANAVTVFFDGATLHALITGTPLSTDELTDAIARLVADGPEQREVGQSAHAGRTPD
Assay: fluorescence polarization

B1: 30-bp IR1 dsDNA, fluorescein (dsDNA)
DNA 1: CGAGCCTCCTTTGTGTACATTTGTACATGT
DNA 2: ACATGTACAAATGTACACAAAGGAGGCTCG
  Kd: 4.4 ± 0.3 nM
